Source: patent US7642046B2, “Method for monitoring recruitment of proteins to the intracellular domain of a receptor in intact cells” (priority 2001, dated 2010)
Values belong to the molecule of their own block, whether it stands above or below them.

Target: T1, CD40 (Homo sapiens, UniProt P25942)
T1 construct: expressed in transfected cells; host or cells: HEK 293T
Assay: Recruitment assay in intact cells: CD40 and TRAF co-expressed in 293T cells, anti-CD40 capture ELISA of lysate
Type: cell-based
Settings: for interaction with CD40 when signalosome assembly occurred in an intact cell: co-expressed in 293T cells, versus cell lysate
Description: In order monitor TNF receptor associated factor 1 (TRAF1) recruitment to the CD40 receptor, in intact cells, CD40 and TRAF1 encoding plasmids generated as described in example 7) were used to co-transfect the human embryonic kidney 293T cells (HEK293 ATTC CRL-1573 over expressing the T antigen) (DuBridge et al 1987). 2×10^5 cells were seeded at into 3.5 cm dishes grown 16 hours at 37° C. and transfected with 1 μg CD40 expression plasmid and 2 μg of an expression plasmid encoding TRAF by the calcium phosphate method (Kingston et al. 1993). The two expression plasmids, TRAF1 plasmid and CD40 plasmid were used for transfection at a ratio greater than 2:1 respectively in order to saturate all the CD40 molecules produced. Twenty-seven hours after transfection, the cells were detached, washed once with ice cold phosphate buffered saline (PBS) and detergent extracted with
180 μl lysis buffer [phosphate buffered saline (PBS) containing a protease inhibitor cocktail (0.16 mM Pefabloc, 105 IU Aprotinin), 1% Triton X100 and 0.1% Na Azide]. Since CD40 has a tendency for ligand independent signaling when expressed at high levels it was not necessary to activate the receptor with DC40 ligand or mimetic anti CD40 antibodies before lysis. This feature is shared by various members of the TNFR gene family (Boldin et al. 1995, Siegel et al. 2000 and Chan et al. 2000). […]
The recruitment of TRAF to CD40 can be quantitatively measured using the assay described in example 1. […] The CD40 bound TRAF concentration was measured as described in example 1. […] The necessary normalization for sample-to-sample variations in the CD40 expression was calculated with the following formula:
[formula] CD40 concentrations were determined with an ELISA employing a monoclonal antibody (solid phase) and a polyclonal anti CD40 antibody (for detection) both specific for the extracellular domain of the receptor. […]

T1 sequence (P25942 21-277): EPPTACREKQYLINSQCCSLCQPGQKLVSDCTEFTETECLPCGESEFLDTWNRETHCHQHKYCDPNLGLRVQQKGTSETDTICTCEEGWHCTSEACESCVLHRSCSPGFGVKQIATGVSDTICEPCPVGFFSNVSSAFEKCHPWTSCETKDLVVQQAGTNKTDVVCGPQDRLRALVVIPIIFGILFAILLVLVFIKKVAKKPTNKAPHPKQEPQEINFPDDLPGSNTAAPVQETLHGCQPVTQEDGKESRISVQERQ

interaction with CD40 when signalosome assembly occurred in an intact cell: clearly improved sensitivity
B1: TRAF2: TNF receptor associated factor 2, human adaptor protein expressed from pcDNA3 (protein, UniProt Q12933 1-501, looked up)
chain: MAAASVTPPGSLELLQPGFSKTLLGTKLEAKYLCSACRNVLRRPFQAQCGHRYCSFCLASILSSGPQNCAACVHEGIYEEGISILESSSAFPDNAARREVESLPAVCPSDGCTWKGTLKEYESCHEGRCPLMLTECPACKGLVRLGEKERHLEHECPERSLSCRHCRAPCCGADVKAHHEVCPKFPLTCDGCGKKKIPREKFQDHVKTCGKCRVPCRFHAIGCLETVEGEKQQEHEVQWLREHLAMLLSSVLEAKPLLGDQSHAGSELLQRCESLEKKTATFENIVCVLNREVERVAMTAEACSRQHRLDQDKIEALSSKVQQLERSIGLKDLAMADLEQKVLEMEASTYDGVFIWKISDFARKRQEAVAGRIPAIFSPAFYTSRYGYKMCLRIYLNGDGTGRGTHLSLFFVVMKGPNDALLRWPFNQKVTLMLLDQNNREHVIDAFRPDVTSSSFQRPVNDMNIASGCPLFCPVSKMEAKNSYVRDDAIFIKAIVDLTGL
modifications: full-length
notes: TNF receptor associated factor 2, human adaptor protein expressed from pcDNA3

dilution of the original extract up to which recruitment to the CD40 receptor can be detected (CD40 wt co-expressed with TRAF1 in 293T cells, 3 fold serial dilutions of lysate): ≤ 243 fold
interaction with CD40 when signalosome assembly occurred in an intact cell: clearly improved sensitivity
B2: TRAF1: TNF receptor associated factor 1, adaptor protein overexpressed in 293T cells from pcDNA3 (protein, UniProt Q13077 1-416, looked up)
chain: MASSSGSSPRPAPDENEFPFGCPPTVCQDPKEPRALCCAGCLSENPRNGEDQICPKCRGEDLQSISPGSRLRTQEKAHPEVAEAGIGCPFAGVGCSFKGSPQSVQEHEVTSQTSHLNLLLGFMKQWKARLGCGLESGPMALEQNLSDLQLQAAVEVAGDLEVDCYRAPCSESQEELALQHFMKEKLLAELEGKLRVFENIVAVLNKEVEASHLALATSIHQSQLDRERILSLEQRVVELQQTLAQKDQALGKLEQSLRLMEEASFDGTFLWKITNVTRRCHESACGRTVSLFSPAFYTAKYGYKLCLRLYLNGDGTGKRTHLSLFIVIMRGEYDALLPWPFRNKVTFMLLDQNNREHAIDAFRPDLSSASFQRPQSETNVASGCPLFFPLSKLQSPKHAYVKDDTMFLKCIVETST
modifications: full-length
notes: TNF receptor associated factor 1, adaptor protein overexpressed in 293T cells from pcDNA3
